B1: purified human BChE (butyrylcholinesterase, from human serum; Sigma) (protein)
chain: EDDIIIATKNGKVRGMNLTVFGGTVTAFLGIPYAQPPLGRLRFKKPQSLTKWSDIWNATKYANSCCQNIDQSFPGFHGSEMWNPNTDLSEDCLYLNVWIPAPKPKNATVLIWIYGGGFQTGTSSLHVYDGKFLARVERVIVVSMNYRVGALGFLALPGNPEAPGNMGLFDQQLALQWVQKNIAAFGGNPKSVTLFGESAGAASVSLHLLSPGSHSLFTRAILQSGSFNAPWAVTSLYEARNRTLNLAKLTGCSRENETEIIKCLRNKDPQEILLNEAFVVPYGTPLSVNFGPTVDGDFLTDMPDILLELGQFKKTQILVGVNKDEGTAFLVYGAPGFSKDNNSIITRKEFQEGLKIFFPGVSEFGKESILFHYTDWVDDQRPENYREALGDVVGDYNFICPALEFTKKFSEWGNNAFFYYFEHRSSKLPWPEWMGVMHGYEIEFVFGLPLERRDNYTKAEEILSRSIVKRWANFAKYGNPNETQNNSTSWPVFKSTEQKYLTLNTESTRIMTKLRAQQCRFWTSFFPKVLEMTGNIDEAEWEWKAGFHRWNNYMMDWKNQFNDYTSKKESCVGL
B2: recombinant human AChE-S (synaptic acetylcholinesterase) (protein)
chain: EGREDAELLVTVRGGRLRGIRLKTPGGPVSAFLGIPFAEPPMGPRRFLPPEPKQPWSGVVDATTFQSVCYQYVDTLYPGFEGTEMWNPNRELSEDCLYLNVWTPYPRPTSPTPVLVWIYGGGFYSGASSLDVYDGRFLVQAERTVLVSMNYRVGAFGFLALPGSREAPGNVGLLDQRLALQWVQENVAAFGGDPTSVTLFGESAGAASVGMHLLSPPSRGLFHRAVLQSGAPNGPWATVGMGEARRRATQLAHLVGCPPGGTGGNDTELVACLRTRPAQVLVNHEWHVLPQESVFRFSFVPVVDGDFLSDTPEALINAGDFHGLQVLVGVVKDEGSYFLVYGAPGFSKDNESLISRAEFLAGVRVGVPQVSDLAAEAVVLHYTDWLHPEDPARLREALSDVVGDHNVVCPVAQLAGRLAAQGARVYAYVFEHRASTLSWPLWMGVPHGYEIEFIFGIPLDPSRNYTAEEKIFAQRLMRYWANFARTGDPNEPRDPKAPQWPPYTAGAQQYVSLDLRPLEVRRGLRAQACAFWNRFLPKLLSATDTLDEAERQWKAEFHRWSSYMVHWKNQFDHYSKQDRCSDL

Tests used:
[1] = molecular target: T1, Amylin (islet amyloid polypeptide, IAPP), P10997
T1 chain: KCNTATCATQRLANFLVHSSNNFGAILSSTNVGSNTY

[2] = molecular target: synthetic Aβ (1-40) peptide (Biosource), P05067
synthetic Aβ (1-40) peptide (Biosource), P05067, sequence (P05067 whole entry, looked up, tested part not stated): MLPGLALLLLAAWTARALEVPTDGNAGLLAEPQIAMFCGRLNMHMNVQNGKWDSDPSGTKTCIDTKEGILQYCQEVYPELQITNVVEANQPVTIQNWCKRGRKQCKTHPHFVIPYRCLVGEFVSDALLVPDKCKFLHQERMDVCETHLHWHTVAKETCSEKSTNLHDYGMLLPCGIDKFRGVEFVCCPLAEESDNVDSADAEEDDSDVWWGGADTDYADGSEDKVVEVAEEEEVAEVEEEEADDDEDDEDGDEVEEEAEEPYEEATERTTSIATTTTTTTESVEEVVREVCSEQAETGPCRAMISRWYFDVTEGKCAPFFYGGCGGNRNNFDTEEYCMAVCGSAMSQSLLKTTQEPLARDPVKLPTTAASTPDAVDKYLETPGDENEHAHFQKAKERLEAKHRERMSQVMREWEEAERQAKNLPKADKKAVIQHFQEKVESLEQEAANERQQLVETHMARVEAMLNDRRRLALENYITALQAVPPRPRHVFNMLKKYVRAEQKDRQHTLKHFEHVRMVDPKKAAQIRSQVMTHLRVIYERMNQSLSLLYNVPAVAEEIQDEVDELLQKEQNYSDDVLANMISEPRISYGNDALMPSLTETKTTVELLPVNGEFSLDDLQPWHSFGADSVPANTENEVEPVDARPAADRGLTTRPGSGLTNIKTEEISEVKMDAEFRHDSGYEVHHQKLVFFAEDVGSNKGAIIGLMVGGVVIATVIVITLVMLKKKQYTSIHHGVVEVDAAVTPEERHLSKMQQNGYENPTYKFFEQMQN

Row | Protein | lag time of amylin amyloid fibril formation with 0.24 µM BChE (30 minutes without) [1] | time for which amylin fibril formation was completely attenuated (20 µM amylin, 0.24 µM BChE, ThT fluorescence) [1] | Aβ fibril formation in a mix of 33 µM Aβ with 0.36 µM AChE-S and increasing doses of hBChE (ThT fluorescence) [2] | Lag (fold change) of Aβ fibrillation against no addition [2] [fold] | Lag (h) before onset of Aβ fibrillation [2] [h] | Rate (FU/h) of Aβ fibrillation, ThT fluorescence, BChE at 27.4 mg/L [2] [FU/h] | Rate (fold change) of Aβ fibrillation against no addition [2] [fold] | concentration needed for a complete attenuation of Aβ fibrillation (for 400 minutes) [2] | time for which Aβ fibril formation was totally prevented (0.4 µM BChE, 33 µM Aβ, ThT fluorescence) [2] | Lag (h) before onset of Aβ fibrillation (no addition: 4.0 ± 0.3) [2] [h] | Rate (FU/h) of Aβ fibrillation, ThT fluorescence, 33 µM Aβ, AChE-S at 25.8 mg/L (no addition: 3.4 ± 0.4) [2] [FU/h]
1 | B1 | increased the lag time of amyloid fibril formation from 30 minutes to 110 minutes | BChE completely attenuated the formation of amylin fibrils for 100 minutes | a dose-dependent interference with the fibril formation process was observed | 1.4 | 5.6 | 1.1 | 0.3 | as compared with 30 µg/ml of the complete BChE enzyme | addition of 0.4 µM BChE to 33 µM Aβ totally prevented fibril formation for over 600 minutes |  | 
2 | B2 |  |  |  | 0.6 |  |  | 2.1 |  |  | 2.5 | 7

From patent US20090169520
